According to patent publication US20040087777A1 (NEURALAB, published 2004):

Key:
Assay in all cases: rNET
… analog, Residue 2 = P = biological target: T1, … analog, Residue 2 = P
T1 peptide: DPEFRHDSGY
Method: (§1) The rNET epitope map assay provides information about the contribution of individual residues within the epitope to the overall binding activity of the antibody. rNET analysis uses synthesized systematic single substituted peptide analogs. Binding of an antibody being tested is determined against native peptide (native antigen) and against 19 alternative “single substituted” peptides, each peptide being substituted at a first position with one of 19 non-native amino acids for that position. A profile is generated reflecting the effect of substitution at that position with the various non-native residues. Profiles are likewise generated at successive positions along the antigenic peptide. The combined profile, or epitope map, (reflecting substitution at each position with all 19 non-native residues) can then be compared to a map similarly generated for a second antibody.
(§2) Antibodies were tested for binding against the native Aβ peptide [sequence] […] Residues 1-8 were systematically substituted with each of the 19 non-native residues for that position.

… analog, Residue 2 = W = biological target: T2, … analog, Residue 2 = W
T2 peptide: DWEFRHDSGY
Method: as §1, §2

… analog, Residue 8 = I = biological target: T3, … analog, Residue 8 = I
T3 peptide: DAEFRHDIGY
Method: as §1, §2

… analog, Residue 3 = P = biological target: T4, … analog, Residue 3 = P
T4 peptide: DAPFRHDSGY
Method: as §1, §2

… analog, Residue 8 = D = biological target: T5, … analog, Residue 8 = D
T5 peptide: DAEFRHDDGY
Method: as §1, §2

… analog, Residue 8 = V = biological target: T6, … analog, Residue 8 = V
T6 peptide: DAEFRHDVGY
Method: as §1, §2

… analog, Residue 1 = P = biological target: T7, … analog, Residue 1 = P
T7 peptide: PAEFRHDSGY
Method: as §1, §2

… analog, Residue 8 = Q = biological target: T8, … analog, Residue 8 = Q
T8 peptide: DAEFRHDQGY
Method: as §1, §2

… analog, Residue 1 = I = biological target: T9, … analog, Residue 1 = I
T9 peptide: IAEFRHDSGY
Method: as §1, §2

… analog, Residue 8 = H = biological target: T10, … analog, Residue 8 = H
T10 peptide: DAEFRHDHGY
Method: as §1, §2

… analog, Residue 8 = E = biological target: T11, … analog, Residue 8 = E
T11 peptide: DAEFRHDEGY
Method: as §1, §2

… analog, Residue 8 = T = biological target: T12, … analog, Residue 8 = T
T12 peptide: DAEFRHDTGY
Method: as §1, §2

… analog, Residue 2 = I = biological target: T13, … analog, Residue 2 = I
T13 peptide: DIEFRHDSGY
Method: as §1, §2

… analog, Residue 8 = L = biological target: T14, … analog, Residue 8 = L
T14 peptide: DAEFRHDLGY
Method: as §1, §2

… analog, Residue 8 = C = biological target: T15, … analog, Residue 8 = C
T15 peptide: DAEFRHDCGY
Method: as §1, §2

… analog, Residue 8 = M = biological target: T16, … analog, Residue 8 = M
T16 peptide: DAEFRHDMGY
Method: as §1, §2

… analog, Residue 2 = T = biological target: T17, … analog, Residue 2 = T
T17 peptide: DTEFRHDSGY
Method: as §1, §2

… analog, Residue 1 = Q = biological target: T18, … analog, Residue 1 = Q
T18 peptide: QAEFRHDSGY
Method: as §1, §2

… analog, Residue 8 = R = biological target: T19, … analog, Residue 8 = R
T19 peptide: DAEFRHDRGY
Method: as §1, §2

… analog, Residue 3 = C = biological target: T20, … analog, Residue 3 = C
T20 peptide: DACFRHDSGY
Method: as §1, §2

… analog, Residue 1 = K = biological target: T21, … analog, Residue 1 = K
T21 peptide: KAEFRHDSGY
Method: as §1, §2

… analog, Residue 2 = Y = biological target: T22, … analog, Residue 2 = Y
T22 peptide: DYEFRHDSGY
Method: as §1, §2

… analog, Residue 2 = Q = biological target: T23, … analog, Residue 2 = Q
T23 peptide: DQEFRHDSGY
Method: as §1, §2

… analog, Residue 1 = M = biological target: T24, … analog, Residue 1 = M
T24 peptide: MAEFRHDSGY
Method: as §1, §2

… analog, Residue 8 = W = biological target: T25, … analog, Residue 8 = W
T25 peptide: DAEFRHDWGY
Method: as §1, §2

… analog, Residue 8 = Y = biological target: T26, … analog, Residue 8 = Y
T26 peptide: DAEFRHDYGY
Method: as §1, §2

… analog, Residue 3 = Y = biological target: T27, … analog, Residue 3 = Y
T27 peptide: DAYFRHDSGY
Method: as §1, §2

… analog, Residue 1 = C = biological target: T28, … analog, Residue 1 = C
T28 peptide: CAEFRHDSGY
Method: as §1, §2

… analog, Residue 2 = V = biological target: T29, … analog, Residue 2 = V
T29 peptide: DVEFRHDSGY
Method: as §1, §2

… analog, Residue 8 = G = biological target: T30, … analog, Residue 8 = G
T30 peptide: DAEFRHDGGY
Method: as §1, §2

… analog, Residue 3 = R = biological target: T31, … analog, Residue 3 = R
T31 peptide: DARFRHDSGY
Method: as §1, §2

… analog, Residue 2 = D = biological target: T32, … analog, Residue 2 = D
T32 peptide: DDEFRHDSGY
Method: as §1, §2

… analog, Residue 1 = A = biological target: T33, … analog, Residue 1 = A
T33 peptide: AAEFRHDSGY
Method: as §1, §2

… analog, Residue 2 = L = biological target: T34, … analog, Residue 2 = L
T34 peptide: DLEFRHDSGY
Method: as §1, §2

… analog, Residue 2 = E = biological target: T35, … analog, Residue 2 = E
T35 peptide: DEEFRHDSGY
Method: as §1, §2

… analog, Residue 3 = D = biological target: T36, … analog, Residue 3 = D
T36 peptide: DADFRHDSGY
Method: as §1, §2

… analog, Residue 3 = F = biological target: T37, … analog, Residue 3 = F
T37 peptide: DAFFRHDSGY
Method: as §1, §2

… analog, Residue 1 = G = biological target: T38, … analog, Residue 1 = G
T38 peptide: GAEFRHDSGY
Method: as §1, §2

… analog, Residue 3 = M = biological target: T39, … analog, Residue 3 = M
T39 peptide: DAMFRHDSGY
Method: as §1, §2

… analog, Residue 3 = G = biological target: T40, … analog, Residue 3 = G
T40 peptide: DAGFRHDSGY
Method: as §1, §2

… analog, Residue 2 = N = biological target: T41, … analog, Residue 2 = N
T41 peptide: DNEFRHDSGY
Method: as §1, §2

… analog, Residue 3 = Q = biological target: T42, … analog, Residue 3 = Q
T42 peptide: DAQFRHDSGY
Method: as §1, §2

… analog, Residue 3 = I = biological target: T43, … analog, Residue 3 = I
T43 peptide: DAIFRHDSGY
Method: as §1, §2

… analog, Residue 1 = L = biological target: T44, … analog, Residue 1 = L
T44 peptide: LAEFRHDSGY
Method: as §1, §2

… analog, Residue 1 = S = biological target: T45, … analog, Residue 1 = S
T45 peptide: SAEFRHDSGY
Method: as §1, §2

… analog, Residue 2 = C = biological target: T46, … analog, Residue 2 = C
T46 peptide: DCEFRHDSGY
Method: as §1, §2

… analog, Residue 2 = M = biological target: T47, … analog, Residue 2 = M
T47 peptide: DMEFRHDSGY
Method: as §1, §2

… analog, Residue 3 = N = biological target: T48, … analog, Residue 3 = N
T48 peptide: DANFRHDSGY
Method: as §1, §2

… analog, Residue 3 = W = biological target: T49, … analog, Residue 3 = W
T49 peptide: DAWFRHDSGY
Method: as §1, §2

… analog, Residue 3 = S = biological target: T50, … analog, Residue 3 = S
T50 peptide: DASFRHDSGY
Method: as §1, §2

… analog, Residue 8 = P = biological target: T51, … analog, Residue 8 = P
T51 peptide: DAEFRHDPGY
Method: as §1, §2

… analog, Residue 1 = E = biological target: T52, … analog, Residue 1 = E
T52 peptide: EAEFRHDSGY
Method: as §1, §2

… analog, Residue 3 = L = biological target: T53, … analog, Residue 3 = L
T53 peptide: DALFRHDSGY
Method: as §1, §2

… analog, Residue 3 = V = biological target: T54, … analog, Residue 3 = V
T54 peptide: DAVFRHDSGY
Method: as §1, §2

… analog, Residue 3 = A = biological target: T55, … analog, Residue 3 = A
T55 peptide: DAAFRHDSGY
Method: as §1, §2

… analog, Residue 3 = T = biological target: T56, … analog, Residue 3 = T
T56 peptide: DATFRHDSGY
Method: as §1, §2

… analog, Residue 2 = G = biological target: T57, … analog, Residue 2 = G
T57 peptide: DGEFRHDSGY
Method: as §1, §2

… analog, Residue 1 = Y = biological target: T58, … analog, Residue 1 = Y
T58 peptide: YAEFRHDSGY
Method: as §1, §2

… analog, Residue 2 = H = biological target: T59, … analog, Residue 2 = H
T59 peptide: DHEFRHDSGY
Method: as §1, §2

… analog, Residue 2 = S = biological target: T60, … analog, Residue 2 = S
T60 peptide: DSEFRHDSGY
Method: as §1, §2

… analog, Residue 3 = H = biological target: T61, … analog, Residue 3 = H
T61 peptide: DAHFRHDSGY
Method: as §1, §2

… analog, Residue 5 = G = biological target: T62, … analog, Residue 5 = G
T62 peptide: DAEFGHDSGY
Method: as §1, §2

… analog, Residue 1 = W = biological target: T63, … analog, Residue 1 = W
T63 peptide: WAEFRHDSGY
Method: as §1, §2

… analog, Residue 1 = T = biological target: T64, … analog, Residue 1 = T
T64 peptide: TAEFRHDSGY
Method: as §1, §2

… analog, Residue 1 = N = biological target: T65, … analog, Residue 1 = N
T65 peptide: NAEFRHDSGY
Method: as §1, §2

… analog, Residue 1 = F = biological target: T66, … analog, Residue 1 = F
T66 peptide: FAEFRHDSGY
Method: as §1, §2

… analog, Residue 7 = E = biological target: T67, … analog, Residue 7 = E
T67 peptide: DAEFRHESGY
Method: as §1, §2

… analog, Residue 2 = R = biological target: T68, … analog, Residue 2 = R
T68 peptide: DREFRHDSGY
Method: as §1, §2

… analog, Residue 8 = F = biological target: T69, … analog, Residue 8 = F
T69 peptide: DAEFRHDFGY
Method: as §1, §2
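Also: antibody binding measured against single-substituted peptide analogs, each epitope position replaced by every one of 19 non-native amino acids, compared with binding to the native Aβ peptide.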

B1: murine monoclonal antibody 3D6 (antibody, mouse IgG2b, V domains shown)
VH: EVKLVESGGGLVKPGASLKLSCAASGFTFSNYGMSWVRQNSDKRLEWVASIRSGGGRTYYSDNVKGRFTISRENAKNTLYLQMSSLKSEDTALYYCVRYDHYSGSSDYWGQGTTVTVSS
VL: not shown
notes: also called mAb 3D6; m3D6
OD (… analog, Residue 2 = P): 0.445 OD | OD (… analog, Residue 2 = W): 0.553 OD | OD (… analog, Residue 8 = I): 0.568 OD | OD (… analog, Residue 3 = P): 0.017 OD | OD (… analog, Residue 8 = D): 0.586 OD | OD (… analog, Residue 8 = V): 0.578 OD | OD (… analog, Residue 1 = P): 0.069 OD | OD (… analog, Residue 8 = Q): 0.59 OD | OD (… analog, Residue 1 = I): 0.048 OD | OD (… analog, Residue 8 = H): 0.559 OD | OD (… analog, Residue 8 = E): 0.601 OD | OD (… analog, Residue 8 = T): 0.586 OD | OD (… analog, Residue 2 = I): 0.522 OD | OD (… analog, Residue 8 = L): 0.57 OD | OD (… analog, Residue 8 = C): 0.583 OD | OD (… analog, Residue 8 = M): 0.571 OD | OD (… analog, Residue 2 = T): 0.552 OD | OD (… analog, Residue 1 = Q): 0.441 OD | OD (… analog, Residue 8 = R): 0.589 OD | OD (… analog, Residue 3 = C): 0.222 OD | OD (… analog, Residue 1 = K): 0.033 OD | OD (… analog, Residue 2 = Y): 0.547 OD | OD (… analog, Residue 2 = Q): 0.567 OD | OD (… analog, Residue 1 = M): 0.039 OD | OD (… analog, Residue 8 = W): 0.567 OD | OD (… analog, Residue 8 = Y): 0.574 OD | OD (… analog, Residue 3 = Y): 0.016 OD | OD (… analog, Residue 1 = C): 0.45 OD | OD (… analog, Residue 2 = V): 0.55 OD | OD (… analog, Residue 8 = G): 0.569 OD | OD (… analog, Residue 3 = R): 0.015 OD | OD (… analog, Residue 2 = D): 0.119 OD | OD (… analog, Residue 1 = A): 0.464 OD | OD (… analog, Residue 2 = L): 0.482 OD | OD (… analog, Residue 2 = E): 0.563 OD | OD (… analog, Residue 3 = D): 0.019 OD | OD (… analog, Residue 3 = F): 0.034 OD | OD (… analog, Residue 1 = G): 0.569 OD | OD (… analog, Residue 3 = M): 0.019 OD | OD (… analog, Residue 3 = G): 0.016 OD | OD (… analog, Residue 2 = N): 0.525 OD | OD (… analog, Residue 3 = Q): 0.153 OD | OD (… analog, Residue 3 = I): 0.019 OD | OD (… analog, Residue 1 = L): 0.073 OD | OD (… analog, Residue 1 = S): 0.569 OD | OD (… analog, Residue 2 = C): 0.553 OD | OD (… analog, Residue 2 = M): 0.535 OD | OD (… analog, Residue 3 = N): 0.024 OD | OD (… analog, Residue 3 = W): 0.149 OD | OD (… analog, Residue 3 = S): 0.016 OD | OD (… analog, Residue 8 = P): 0.574 OD | OD (… analog, Residue 1 = E): 0.576 OD | OD (… analog, Residue 3 = L): 0.019 OD | OD (… analog, Residue 3 = V): 0.016 OD | OD (… analog, Residue 3 = A): 0.038 OD | OD (… analog, Residue 3 = T): 0.015 OD | OD (… analog, Residue 2 = G): 0.527 OD | OD (… analog, Residue 1 = Y): 0.341 OD | OD (… analog, Residue 2 = H): 0.534 OD | OD (… analog, Residue 2 = S): 0.587 OD | OD (… analog, Residue 3 = H): 0.016 OD | OD (… analog, Residue 5 = G): 0.485 OD | OD (… analog, Residue 1 = W): 0.031 OD | OD (… analog, Residue 1 = T): 0.45 OD | OD (… analog, Residue 1 = N): 0.587 OD | OD (… analog, Residue 1 = F): 0.034 OD | OD (… analog, Residue 7 = E): 0.565 OD | OD (… analog, Residue 2 = R): 0.562 OD | OD (… analog, Residue 8 = F): 0.586 OD
